# Test results: patent publication US20190055322A1 (Ablynx, published 2019)
# Key:
# [1] = molecular target: Full length PcrV (aa 1-294), C-terminal c-myc and His6 tags (Pseudomonas aeruginosa strain PAO1); test: ELISA, binder coated
# [2] = molecular target: T1, PcrV of P. aeruginosa strain PA103 (on TTSS-induced bacteria) (Pseudomonas aeruginosa strain PA103); test: cell-based or functional assay
# [3] = molecular target: T1, PcrV of P. aeruginosa strain PA103 (on …); test: cell-based or functional assay; remark: listed apart in the source
# [4] = molecular target: GST-PcrV (strain PAO1, amino acid residues 1-294) (Pseudomonas aeruginosa strain PAO1); test: SPR Biacore T100, GST-PcrV immobilised
# [5] = molecular target: T2, recombinant PcrV protein (rPcrV), strain PAO1, amino acid residues 1-294, C-terminal His6 (Pseudomonas aeruginosa strain PAO1); test: ELISA, periplasmic extract on biotinylated rPcrV
# [6] = molecular target: T2, recombinant PcrV protein (rPcrV), …; test: SPR ProteOn, periplasmic extract on immobilised rPcrV
# [7] = molecular target: T1, PcrV of P. aeruginosa strain PA103 (on …); test: cell-based or functional assay; remark: listed apart in the source
# [8] = molecular target: T1, PcrV of P. aeruginosa strain PA103 (on …); test: cell-based or functional assay; remark: listed apart in the source
# [9] = molecular target: T1, PcrV of P. aeruginosa strain PA103 (on …); test: cell-based or functional assay; remark: listed apart in the source
# [10] = molecular target: T3, PcrV fragment (aa 144-257), C-terminal c-myc and His6 tags (Pseudomonas aeruginosa); test: ELISA, binder coated; NB = binding signal = background signal
# T3 construct: also called small PcrV fragment
# For cytotox assay (% inhibition), P3X63, PA103 in this document: test concentration or dose not given here.
Binder,binding result [1],"cytotox assay (% inhibition), P3X63, PA103 [2] [%]","% inhibition, P3X63 cytotoxicity assay, MOI 4 [3] [%]","IC50 (nM), P3X63 cytotoxicity assay, MOI 4 [3] [nM]",binding ELISA (OD 450 nm) [5] [OD 450 nm],koff [6] [s⁻¹],"% inhibition in P3X63 cytotoxicity assay, extract 1/150 [7] [%]","Efficacy (%), P3X63 cytotoxicity, MOI 12 [8] [%]","IC50 value (M), P3X63 cytotoxicity, MOI 12 [8] [M]","Ratio (IC50 Fab 13.37/IC50 Nanobody), A549 cytotoxicity [9] [fold]",also measured
"Nanobody 5H01 (VHH, also called 05H01) VHH: EVQLVESGGGLVQPGGSLRLSCAASGSTLDYYAIGWFRQAPGKEREGVSCTSNSGSTYYGGSVKGRFTASRDNAKNTVYLQMNSLRPEDTAVYYCVATIGCATLGGTLDVQRYYYRGQGTQVTVSS",binds,76,100,7,2.69,4.9e-05,,,,,Kd [4]: 1 nM; koff [4]: 0.00014 s⁻¹; kon [4]: 160000 M⁻¹ s⁻¹
"Nanobody 6B05 (VHH, also called 06B05) VHH: EVQLVESGGGLVQPGGSLRLSCAASGSIFSINTMGWYRQAPGKQRELVSTITSNLVPHYADSVQGRFTISRDNARNTVYLQMNSLKPQDTAHYYCNAWARSSGATPYTNYWGQGTLVTVSS",binds,32,,,2.55,0.00018,,,,,"% inhibition, P3X63 cytotoxicity assay, MOI 3 [3]: 100%; IC50 (nM), P3X63 cytotoxicity assay, MOI 3 [3]: 435 nM"
Nanobody 275 (2G09-40GS-5H01) (VHH) EVQLVESGGGLVQPGGSLRLSCAASGSFGDNYELYAMTWFRQAPGERRDFVASVTGDGSTSYADSVKDRFTISRDNAKKLMYLQMNSLKPEDTAVYYCRLLNYWGQGTLVTVSSGGGGSGGGGSGGGGSGGGGSGGGGSGGGGSGGGGSGGGGSEVQLVESGGGLVQPGGSLRLSCAASGSTLDYYAIGWFRQAPGKEREGVSCTSNSGSTYYGGSVKGRFTASRDNAKNTVYLQMNSLRPEDTAVYYCVATIGCATLGGTLDVQRYYYRGQGTLVTVSS,,,,,,,66,100,3.7e-09,1,
"Nanobody 2B10 (VHH, also called 02B10) VHH: EVQLVESGGGLVQPGGSLRLSCAASGSIFSINNMGWYRQAPGKQRELVTVVTSNLITTYADSVKGRFTISRDNAKNTVYLQMNSLKPEDTAVYYCNAWARSVGSVPYSQFWGQGTLVTVSS",binds,38,100,647,2.57,0.00018,,,,,Kd [4]: 0.5 nM; koff [4]: 0.00025 s⁻¹; kon [4]: 510000 M⁻¹ s⁻¹
Nanobody 14E10 (VHH) VHH: EVQLVESGGGLVQPGGSLRLSCAASGRIFSINTMGWYRQAPGKQRELVAGVTINAITNYADSVKGRFTISRDNAKNTVWLQMNSLKPEDTAVYYCHAWARSSGSAPYSQNWGQGTQVTVSS,binds,22,,,,0.0006,,,,,"% inhibition, P3X63 cytotoxicity assay, MOI 3 [3]: 100%; IC50 (nM), P3X63 cytotoxicity assay, MOI 3 [3]: > 3000 nM; binding result [10]: no binding"
"Nanobody 7E09 (VHH, also called 07E09) VHH: EVQLVESGGGLVQAGGSLRLSCAASGRTFSSYIMGWFRQAPGKAREFVADITWGQRPYYADSVKGRFTISRDNAKNTVYLEMNSLKPEDTAVYYCAADLGVVIREEHAYWGQGTLVTVSS",binds,16,,,2.59,0.0004,,,,,binding result [10]: no binding
Nanobody 13F07 (VHH) VHH: EVQLVESGGGLVQAGGSLRLSCAASGNTFSTNPMYWYRQAEGKQRELVASISSRGITNYADSVRGRFSISRDNTKDTVYLQMNSLKPEDTAVYYCRLASLSSGTVYWGKGTLVTVSS,binds,13,,,,0.00092,,,,,"% inhibition, P3X63 cytotoxicity assay, MOI 1.5 [3]: > 20%; IC50 (nM), P3X63 cytotoxicity assay, MOI 1.5 [3]: 35600 nM; binding result [10]: no binding"
Nanobody 319 (13F07-40GS-6B05) (VHH) EVQLVESGGGLVQAGGSLRLSCAASGNTFSTNPMYWYRQAEGKQRELVASISSRGITNYADSVRGRFSISRDNTKDTVYLQMNSLKPEDTAVYYCRLASLSSGTVYWGKGTLVTVSSGGGGSGGGGSGGGGSGGGGSGGGGSGGGGSGGGGSGGGGSEVQLVESGGGLVQPGGSLRLSCAASGSIFSINTMGWYRQAPGKQRELVSTITSNLVPHYADSVQGRFTISRDNARNTVYLQMNSLKPQDTAHYYCNAWARSSGATPYTNYWGQGTLVTVSS,,,,,,,46,100,8.1e-11,2,
Nanobody 335 (5H01-40GS-1E11) (VHH) EVQLVESGGGLVQPGGSLRLSCAASGSTLDYYAIGWFRQAPGKEREGVSCTSNSGSTYYGGSVKGRFTASRDNAKNTVYLQMNSLRPEDTAVYYCVATIGCATLGGTLDVQRYYYRGQGTLVTVSSGGGGSGGGGSGGGGSGGGGSGGGGSGGGGSGGGGSGGGGSEVQLVESGGGLVQPGGSLRLSCAASGSTRSVNPMAWFRQAPGRQREWVATISRSGYATYADSVKGRFTISGDNAKSSVYLQMNSLKPEDTAVYYCVTGTYWGQGTLVTVSS,,,,,,,46,100,6.4e-11,1,
"Fab 13.37 (Fab, V domains shown) VH: QVQLVESGGGVVQPGRSLRLSCAASGFTFSSYPLHWVRQAPGKGLEWVSFISYDGSEKYYASSVKGRFTISRDNSENTLYLQMNSLRPEDTAVYYCARNRGDIYYDFTYAMDIWGQGTMVTVSS VL: DIQMTQSPSSLSASVGDRVTITCRASQSISRWVAWYQQRPGKAPNLLIYDASSLKSGVPSRFSGSGSGTEFTLTISSLQPEDIATYYCQQFWGTPYTFGQGTKLEIKR",binds,,100,8,,,,100,5.4e-10,,"% inhibition, P3X63 cytotoxicity assay, MOI 1.5 [3]: 100%; % inhibition, P3X63 cytotoxicity assay, MOI 3 [3]: 100%; IC50 (nM), P3X63 cytotoxicity assay, MOI 1.5 [3]: 1 nM; IC50 (nM), P3X63 cytotoxicity assay, MOI 3 [3]: 1 nM"
Nanobody 285 (13F07-40GS-2B02) (VHH) EVQLVESGGGLVQAGGSLRLSCAASGNTFSTNPMYWYRQAEGKQRELVASISSRGITNYADSVRGRFSISRDNTKDTVYLQMNSLKPEDTAVYYCRLASLSSGTVYWGKGTLVTVSSGGGGSGGGGSGGGGSGGGGSGGGGSGGGGSGGGGSGGGGSEVQLVESGGGLVQPGDSLRLSCAASGRILSINNMVWYRQAPGKQRELVAHITSSGSTGYADSVKGRFTISRDNAKNTFYLQMTNLNPEDTAVYYCNCWVSSDSNAPLKNYWGQGTLVTVSS,,,,,,,59,100,6.1e-11,1,
"Nanobody 1E11 (VHH, also called 01E11) VHH: EVQLVESGGGLVQPGGSLRLSCAASGSTRSVNPMAWFRQAPGRQREWVATISRSGYATYADSVKGRFTISGDNAKSSVYLQMNSLKPEDTAVYYCVTGTYWGQGTLVTVSS",binds,33,58,23,2.56,0.00035,,,,,
Nanobody 277 (5H01-40GS-11B09) (VHH) EVQLVESGGGLVQPGGSLRLSCAASGSTLDYYAIGWFRQAPGKEREGVSCTSNSGSTYYGGSVKGRFTASRDNAKNTVYLQMNSLRPEDTAVYYCVATIGCATLGGTLDVQRYYYRGQGTLVTVSSGGGGSGGGGSGGGGSGGGGSGGGGSGGGGSGGGGSGGGGSEVQLVESGGGLVQAGGSLRLSCAASRLTFNHYNMGWFRQAPGKERERVAEVTWSGDKIYYVDSVKGRFTISRDNTPNPVYLYLQMNSLKPEDTAVYYCATAPRGLPYANGYWGQGTLVTVSS,,,,,,,85,100,1.3e-11,8,
